US20240209113A1 (BEIGENE SWITZERLAND, published 2024)
Numbering of substitutions follows the chain as printed. Several values for one entry are separate records, joined by “and”; a condition that tells them apart may be missing. Equal entries are not always repeated.

Assays:
[1] = target: T1, Mouse CD137 (mouse, UniProt P20334 24-187, limits assumed); test: SPR
T1 construct: also called murine CD137
T1 sequence (looked up): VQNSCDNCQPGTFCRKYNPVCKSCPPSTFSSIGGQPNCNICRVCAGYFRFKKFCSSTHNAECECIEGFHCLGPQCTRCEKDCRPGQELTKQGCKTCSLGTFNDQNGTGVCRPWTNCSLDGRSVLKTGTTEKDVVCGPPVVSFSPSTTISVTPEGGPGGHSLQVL

[2] = target: Mouse GPC3 (mouse, UniProt Q8CFZ4 25-558, limits assumed); test: SPR
[3] = target: FcγRI (UniProt P12314 16-288, limits assumed); test: ELISA
[4] = target: T2, FcγRIIAH131 (UniProt P12318 36-218, limits assumed); test: ELISA
T2 sequence (looked up): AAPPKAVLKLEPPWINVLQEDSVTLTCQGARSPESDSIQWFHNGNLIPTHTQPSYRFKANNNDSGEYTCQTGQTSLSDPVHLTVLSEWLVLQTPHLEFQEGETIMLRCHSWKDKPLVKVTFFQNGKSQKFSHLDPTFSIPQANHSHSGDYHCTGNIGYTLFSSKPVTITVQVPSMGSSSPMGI

[5] = target: T3, FcγRIIAR131 (UniProt P12318 36-218, limits assumed); test: ELISA
T3 sequence (looked up): T2 sequence (looked up) with H132R

[6] = target: T4, FcγRIIB (UniProt P31994 43-217, limits assumed); test: ELISA
T4 sequence (looked up): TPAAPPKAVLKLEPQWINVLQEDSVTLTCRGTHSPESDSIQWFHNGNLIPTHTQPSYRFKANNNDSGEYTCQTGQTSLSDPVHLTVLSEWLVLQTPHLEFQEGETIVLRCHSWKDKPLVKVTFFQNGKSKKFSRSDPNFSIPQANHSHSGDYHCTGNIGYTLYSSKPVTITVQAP

[7] = target: FcγRIIIAV158 (UniProt P08637 17-208, limits assumed); test: ELISA
[8] = target: FcγRIIIAF158 (UniProt P08637 17-208, limits assumed); test: ELISA
[9] = target: FcγRIIIB (UniProt O75015 17-200, limits assumed); test: ELISA
[10] = target: T5, Human CD137 (recombinant protein, Example 11) (human, UniProt Q07011 24-186); test: SPR
[11] = target: T6, Monkey CD137 (recombinant protein, Example 11) (cynomolgus monkey, UniProt Q07011 24-186 (human entry), limits assumed); test: SPR
T6 construct: also called cynomolgus monkey CD137
T6 chain: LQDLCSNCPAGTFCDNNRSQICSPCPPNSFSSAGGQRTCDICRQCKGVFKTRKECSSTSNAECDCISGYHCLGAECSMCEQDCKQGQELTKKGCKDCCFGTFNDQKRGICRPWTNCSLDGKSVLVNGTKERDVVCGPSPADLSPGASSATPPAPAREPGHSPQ

[12] = target: T7, Human GPC3 (recombinant protein, Example 11) (human, UniProt P51654 25-559, limits assumed); test: SPR
[13] = target: T8, Monkey GPC3 (cynomolgous monkey, UniProt A0A2K5VK50 24-553); test: SPR
T8 construct: Bought protein; also called monkey GPC3 (Cat #GP3-C5225, Acrobiosystem)

[14] = target: T9, full-length human CD137 on cells (human, UniProt Q07011 24-255); test: cell-based or functional assay
[15] = target: T10, human GPC3 on cells (human, UniProt P51654 25-559); test: cell-based or functional assay
[16] = target: T9, full-length human CD137 on cells; test: FACS on HuT78/CD137 cells
[17] = target: T10, human GPC3 on cells; test: FACS on Hepa1-6T-OS8-GPC3 cells
[18] = target: C1q (UniProt P02745 23-245; P02746 28-253; P02747 29-245); test: C1q binding ELISA
[19] = target: human CD137 ECD mutant F36A (human, UniProt Q07011 24-186); test: ELISA on wild type and mutant CD137 proteins
[20] = target: human CD137 ECD mutant P47A (human, UniProt Q07011 24-186); test: ELISA on wild type and mutant CD137 proteins
[21] = target: human CD137 ECD mutant P49A (human, UniProt Q07011 24-186); test: ELISA on wild type and mutant CD137 proteins
[22] = target: T11, DS50b (human GPC3 AA 511-560) (human, constructed to the N terminal of biotin, generating DS50b-KLH (so in the source)); test: ELISA on DS50b-KLH [B]
T11 construct: also called DS50b-KLH
T11 peptide: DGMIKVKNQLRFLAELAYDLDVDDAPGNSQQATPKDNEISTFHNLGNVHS

[23] = target: T12, GK28b (human GPC3 AA 537-563) (human, constructed to the N terminal of biotin, generating GK28b-KLH (so in the source)); test: ELISA on GK28b-KLH [A]
T12 construct: also called GK28b-KLH
T12 peptide: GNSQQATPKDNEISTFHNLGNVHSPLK

[24] = target: T13, huGPC3-His (human, UniProt P51654 25-559); test: ELISA on huGPC3-His [C]
T13 construct: not shown: His tag

[25] = target: T5, Human CD137 (recombinant protein, …); test: dual antigen binding ELISA with CD137 and GPC3 bound at the same time; which antigen is coated is not stated
[26] = target: T7, Human GPC3 (recombinant protein, …); test: as above

T9 sequence (Q07011 24-255 limits assumed): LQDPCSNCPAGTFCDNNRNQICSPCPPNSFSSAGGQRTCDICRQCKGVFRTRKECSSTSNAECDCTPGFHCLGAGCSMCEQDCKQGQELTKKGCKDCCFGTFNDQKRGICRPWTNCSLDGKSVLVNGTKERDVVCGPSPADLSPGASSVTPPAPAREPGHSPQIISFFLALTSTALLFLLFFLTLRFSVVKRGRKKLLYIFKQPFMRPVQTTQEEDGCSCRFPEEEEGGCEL
T5 sequence (Q07011 24-186 limits assumed): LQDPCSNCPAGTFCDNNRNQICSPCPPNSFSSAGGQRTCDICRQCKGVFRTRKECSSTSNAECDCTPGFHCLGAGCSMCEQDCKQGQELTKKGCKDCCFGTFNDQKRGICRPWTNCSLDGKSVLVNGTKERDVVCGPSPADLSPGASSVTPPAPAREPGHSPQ
Chain of human CD137 ECD mutant P49A (Q07011 24-186 P49A limits assumed): as the sequence (Q07011 24-186 limits assumed) above, with P26A counted along it
Chain of FcγRIIIB (O75015 17-200 limits assumed): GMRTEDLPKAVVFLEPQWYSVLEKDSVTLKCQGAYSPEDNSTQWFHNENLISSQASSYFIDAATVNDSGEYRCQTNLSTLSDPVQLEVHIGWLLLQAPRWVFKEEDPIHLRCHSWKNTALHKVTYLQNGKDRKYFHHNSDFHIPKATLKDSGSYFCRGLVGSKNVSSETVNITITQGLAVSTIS
Chain of Mouse GPC3 (Q8CFZ4 25-558 limits assumed): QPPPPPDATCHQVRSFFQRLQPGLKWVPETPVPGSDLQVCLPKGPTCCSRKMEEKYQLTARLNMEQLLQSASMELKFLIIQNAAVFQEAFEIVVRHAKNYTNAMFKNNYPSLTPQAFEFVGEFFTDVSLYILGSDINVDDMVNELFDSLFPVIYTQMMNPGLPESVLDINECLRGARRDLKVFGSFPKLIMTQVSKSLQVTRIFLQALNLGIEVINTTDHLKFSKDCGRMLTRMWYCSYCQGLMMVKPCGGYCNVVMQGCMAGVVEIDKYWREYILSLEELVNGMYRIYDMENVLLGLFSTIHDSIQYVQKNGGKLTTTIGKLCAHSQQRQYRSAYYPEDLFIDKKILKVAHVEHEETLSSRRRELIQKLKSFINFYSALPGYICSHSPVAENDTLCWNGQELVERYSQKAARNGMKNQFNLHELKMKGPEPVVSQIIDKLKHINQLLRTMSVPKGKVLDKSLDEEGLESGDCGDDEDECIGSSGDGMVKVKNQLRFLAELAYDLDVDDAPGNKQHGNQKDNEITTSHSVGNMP
Chain of FcγRIIIAV158 (P08637 17-208 F176V limits assumed): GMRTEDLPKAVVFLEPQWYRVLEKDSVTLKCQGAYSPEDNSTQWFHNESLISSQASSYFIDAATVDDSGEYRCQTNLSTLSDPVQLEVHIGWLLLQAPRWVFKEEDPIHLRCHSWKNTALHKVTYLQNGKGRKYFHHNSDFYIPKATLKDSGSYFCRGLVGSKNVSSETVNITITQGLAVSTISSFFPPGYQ
Chain of human CD137 ECD mutant F36A (Q07011 24-186 F36A limits assumed): as the sequence (Q07011 24-186 limits assumed) above, with F13A counted along it
Chain of C1q (P02745 23-245, chain 1 of 3): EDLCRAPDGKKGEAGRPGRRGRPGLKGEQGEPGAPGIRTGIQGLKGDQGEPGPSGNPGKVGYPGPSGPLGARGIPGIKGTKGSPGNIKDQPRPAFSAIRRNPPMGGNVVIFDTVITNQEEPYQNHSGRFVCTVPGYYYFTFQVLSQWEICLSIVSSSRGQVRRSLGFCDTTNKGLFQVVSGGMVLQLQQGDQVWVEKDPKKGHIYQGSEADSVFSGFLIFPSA
Chain of C1q (P02746 28-253, chain 2 of 3): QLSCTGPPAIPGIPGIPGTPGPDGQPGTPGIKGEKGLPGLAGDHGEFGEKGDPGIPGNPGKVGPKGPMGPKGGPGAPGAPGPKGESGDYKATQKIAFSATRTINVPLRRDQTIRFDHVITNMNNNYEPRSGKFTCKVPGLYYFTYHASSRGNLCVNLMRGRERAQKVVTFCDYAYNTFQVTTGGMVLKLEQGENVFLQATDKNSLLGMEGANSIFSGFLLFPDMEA
Chain of C1q (P02747 29-245, chain 3 of 3): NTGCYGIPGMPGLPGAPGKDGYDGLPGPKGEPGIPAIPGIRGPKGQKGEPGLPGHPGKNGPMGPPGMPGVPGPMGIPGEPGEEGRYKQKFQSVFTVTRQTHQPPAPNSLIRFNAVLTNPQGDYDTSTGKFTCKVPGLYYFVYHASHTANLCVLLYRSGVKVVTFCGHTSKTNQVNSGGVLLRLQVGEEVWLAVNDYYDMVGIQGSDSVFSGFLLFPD
Chain of FcγRIIIAF158 (P08637 17-208 limits assumed): as the sequence (P08637 17-208 F176V limits assumed) above, with V160F counted along it
Chain of human CD137 ECD mutant P47A (Q07011 24-186 P47A limits assumed): as the sequence (Q07011 24-186 limits assumed) above, with P24A counted along it
Chain of FcγRI (P12314 16-288 limits assumed): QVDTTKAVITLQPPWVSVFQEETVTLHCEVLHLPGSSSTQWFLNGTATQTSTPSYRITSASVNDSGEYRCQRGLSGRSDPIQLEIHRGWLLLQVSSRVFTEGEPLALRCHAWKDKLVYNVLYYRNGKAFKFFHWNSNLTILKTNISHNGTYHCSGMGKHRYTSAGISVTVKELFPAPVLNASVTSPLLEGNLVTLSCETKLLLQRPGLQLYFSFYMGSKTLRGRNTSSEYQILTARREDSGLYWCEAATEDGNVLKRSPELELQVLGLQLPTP

binding result [1]: no binding | binding result [2]: no binding | binding result [3]: no binding | binding result [4]: no binding | binding result [5]: no binding | binding result [6]: no binding | binding result [7]: no binding | binding result [8]: no binding | binding result [9]: no binding | Kd [10]: 40.1 nM | koff [10]: 0.00484 s⁻¹ | kon [10]: 121000 M⁻¹ s⁻¹ | Kd [11]: 19.2 nM | koff [11]: 0.00291 s⁻¹ | kon [11]: 152000 M⁻¹ s⁻¹ | Kd [12]: 0.559 nM | koff [12]: 0.000312 s⁻¹ | kon [12]: 559000 M⁻¹ s⁻¹ | Kd [13]: 0.643 nM | koff [13]: 0.000273 s⁻¹ | kon [13]: 425000 M⁻¹ s⁻¹ | EC50, cell-based bioluminescent assay (NFκB luciferase in JK-NFκB-CD137 co-cultured with Hepa1-6T-OS8-GPC3) [14]: 0.149 µg/ml and 0.86 nM | EC50, cell-based bioluminescent assay (NFκB luciferase in JK-NFκB-CD137 co-cultured with Hepa1-6T-OS8-GPC3) [15]: 0.149 µg/ml and 0.86 nM | EC50 [16]: 0.712 µg/mL and 4.09 nM | EC50 [17]: 1.11 µg/mL and 6.41 nM | EC50 (read off the curve) [18]: ~2000 ng/mL | decrease of binding activity against wild type CD137 [19]: > 75% | decrease of binding activity against wild type CD137 [20]: > 75% | decrease of binding activity against wild type CD137 [21]: > 75% | EC50 (read off the curve) [22]: ~9 ng/mL | EC50 (read off the curve) [23]: ~8 ng/mL | EC50 (read off the curve) [24]: ~40 ng/mL | EC50 (read off the curve) [25]: ~70 ng/mL | EC50 (read off the curve) [26]: ~70 ng/mL
B1: BE-830 (bispecific antibody, human IgG1, kappa)
heavy: QVQLVQSGAEVKKPGASVKVSCKASGYTFTDYEMHWVRQAPGQGLEWMGALDPKTGDTAYSQKFKGRVTLTADKSTSTAYMELSSLTSEDTAVYYCTRFYSYTYWGQGTLVTVSSASTKGPSVFPLAPSSKSTSGGTAALGCLVKDYFPEPVTVSWNSGALTSGVHTFPAVLQSSGLYSLSSVVTVPSSSLGTQTYICNVNHKPSNTKVDKKVEPKSCDKTHTCPPCPAPPAAGPSVFLFPPKPKDTLMISRTPEVTCVVVDVSHEDPEVKFNWYVDGVEVHNAKTKPREEQYNSTYRVVSVLTVLHQDWLNGKEYKCKVSNKALAAPIEKTISKAKGQPREPQVYTLPPSREEMTKNQVSLTCLVKGFYPSDIAVEWESNGQPENNYKTTPPVLDSDGSFFLYSKLTVDKSRWQQGNVFSCSVMHEALHNHYTQKSLSLSPGKGGGGSEVQLLESGGGLVQPGGSLRLSCAASGFTVSAEDVGWVRQAPGKGLEWVSAILDKGGSTYYAESVKGRFTISRDNAKNTLYLQMSSLRAEDTAVYYCARIVYHAGGGVTFDTRGQGTQVTVSS
light: DVVMTQSPLSLPVTPGEPASISCRSSQSLVHSNRNTYLHWYLQKPGQSPQLLIYKVSNRFSGVPDRFSGSGSGTDFTLKISRVEAEDVGVYYCSQNTHVPPTFGQGTKLEIKRTVAAPSVFIFPPSDEQLKSGTASVVCLLNNFYPREAKVQWKVDNALQSGNSQESVTEQDSKDSTYSLSSTLTLSKADYEKHKVYACEVTHQGLSSPVTKSFNRGEC
notes: also called GPC3×CD137 multispecific antibody BE-830; GPC3 x CD137 (BE-830)
